Results published in PMC6802930.

Tests used:
[1] = molecular target: ^HAβ3 (rat GABAA receptor β3 subunit with a triple HA tag) (rat) (UniProt P63079)
[2] = molecular target: ^HAβ3 (rat GABAA receptor β3 subunit with a triple HA tag) (rat) (UniProt P63079); remark: listed apart in the source
[3] = molecular target: ^HAβ3/θIC chimera (EC and TM domains from β3, intracellular domain from θ) (rat)
[4] = molecular target: ^HAβ3 (rat GABAA receptor β3 subunit with a triple HA tag) (rat) (UniProt P63079); remark: listed apart in the source
[5] = molecular target: ^HAβ3/θIC chimera (EC and TM domains from β3, intracellular domain from θ) (rat); remark: listed apart in the source
[6] = molecular target: ^HAβ3/θIC chimera (EC and TM domains from β3, intracellular domain from θ) (rat); remark: listed apart in the source

^HAβ3 (rat GABAA receptor β3 subunit with a triple HA tag) (from UniProt P63079 26-473)
peak whole-cell current evoked by 3 mM histamine, HEK293 cells transfected with ^HAβ3 alone (patch clamp, -80 mV) [1]: 404 pA

^zβ3Q64E (mutant β3 subunit with higher affinity for histamine) (from UniProt P63079 26-473) (receptor)
share of the low-affinity component in the bimodal histamine concentration-response curve (10 μM to 10 mM), whole-cell patch clamp, HEK293 cells co-transfected with ^zβ3Q64E and ^HAβ3 (% of the total curve fit) [2]: 85

rat GABAA receptor α3 subunit (untagged) (from UniProt P20236 29-493)
anti-HA surface immunofluorescence intensity of non-permeabilized HEK293 cells co-transfected with α3 and ^HAβ3/θIC (the chimera alone is rarely on the surface) [3]: 14 AU
histamine (3 mM) potentiation of the response to 1 mM GABA, whole-cell patch clamp, HEK293 cells co-transfected with α3 and ^HAβ3 [4]: 2.93 fold
peak whole-cell current evoked by 1 mM GABA, HEK293 cells co-transfected with α3 and ^HAβ3/θIC (patch clamp) [5]: 803 pA

rat GABAA receptor β3 subunit (untagged) (from UniProt P63079 26-473)
anti-HA surface immunofluorescence intensity of non-permeabilized HEK293 cells co-transfected with untagged β3 and ^HAβ3/θIC (the chimera alone is rarely on the surface) [6]: 9.9 AU
